Key:
Test in all cases: cryo-EM structure; single particle analysis of extended AlgoCIS particles assembled in A. machipongonensis and purified whole, in buffer B (20 mM Tris pH 7.5, 150 mM NaCl); cap 2.5 Å, extended sheath-tube 2.4 Å, baseplate 2.7-2.9 Å, whole particle 4.4 Å
[1] = target: Alg1 (inner tube protein of AlgoCIS) (Algoriphagus machipongonensis PR1 (endogenous in A. machipongonensis))
[2] = target: Alg6 (plug protein of AlgoCIS) (Algoriphagus machipongonensis PR1 (endogenous in A. machipongonensis))
[3] = target: Alg8 (central spike protein of AlgoCIS) (Algoriphagus machipongonensis PR1 (endogenous in A. machipongonensis))
[4] = target: Alg11 (baseplate wedge protein of AlgoCIS, forms the spike cage) (Algoriphagus machipongonensis PR1 (endogenous in A. machipongonensis))
[5] = target: Alg16A (cap protein of AlgoCIS) (Algoriphagus machipongonensis PR1 (endogenous in A. machipongonensis))
[6] = target: Alg16B (cap adaptor protein of AlgoCIS) (Algoriphagus machipongonensis PR1 (endogenous in A. machipongonensis))

“Alg1 (inner tube protein of AlgoCIS) (natural protein)” showed a stoichiometry N [1] of 6.

Substance “Alg6 (plug protein of AlgoCIS) (natural protein)” has a stoichiometry N [2] of 3.

“Alg8 (central spike protein of AlgoCIS) (natural protein)” showed a stoichiometry N [3] of 3.

For “Alg11 (baseplate wedge protein of AlgoCIS, forms the spike cage) (natural protein)”, the stoichiometry N [4] was 6.

Work on “Alg16A (cap protein of AlgoCIS) (natural protein)” yielded a stoichiometry N [5] of 6.

“Alg16B (cap adaptor protein of AlgoCIS) (natural protein)” was tested, and the stoichiometry N [6] was 6.
